Like-named read-outs stand apart in the source and are kept apart here.
T1: mouse Siglec15-his protein (mouse)
T1 construct: In house made
T1 chain: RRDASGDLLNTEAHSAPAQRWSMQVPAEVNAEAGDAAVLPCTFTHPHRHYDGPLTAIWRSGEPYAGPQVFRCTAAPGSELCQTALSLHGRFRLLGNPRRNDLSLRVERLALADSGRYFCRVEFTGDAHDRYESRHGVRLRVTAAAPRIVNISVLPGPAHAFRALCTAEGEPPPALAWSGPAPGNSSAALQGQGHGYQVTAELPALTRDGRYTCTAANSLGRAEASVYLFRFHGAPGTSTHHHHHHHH

T2: human Siglec15 on human-siglec15-2D3-1E1 cells (human, UniProt Q6ZMC9 20-328)
T2 construct: whole, on cells; Transfected HEK-293 cells; also called cell surface human Siglec15
T2 sequence (looked up): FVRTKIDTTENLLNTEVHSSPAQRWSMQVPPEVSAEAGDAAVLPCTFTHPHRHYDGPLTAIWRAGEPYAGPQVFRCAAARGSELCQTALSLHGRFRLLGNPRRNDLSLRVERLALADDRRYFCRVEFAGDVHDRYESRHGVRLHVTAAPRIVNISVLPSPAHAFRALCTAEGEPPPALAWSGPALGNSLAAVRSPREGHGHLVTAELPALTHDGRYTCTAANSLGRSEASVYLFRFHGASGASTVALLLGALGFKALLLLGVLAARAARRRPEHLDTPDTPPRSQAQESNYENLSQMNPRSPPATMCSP

T3: cynomolgus monkey Siglec15-his protein (cynomolgus monkey)
T3 construct: In house made; also called Cynomolgus Siglec15-his; cynomolgus Siglec15
T3 chain: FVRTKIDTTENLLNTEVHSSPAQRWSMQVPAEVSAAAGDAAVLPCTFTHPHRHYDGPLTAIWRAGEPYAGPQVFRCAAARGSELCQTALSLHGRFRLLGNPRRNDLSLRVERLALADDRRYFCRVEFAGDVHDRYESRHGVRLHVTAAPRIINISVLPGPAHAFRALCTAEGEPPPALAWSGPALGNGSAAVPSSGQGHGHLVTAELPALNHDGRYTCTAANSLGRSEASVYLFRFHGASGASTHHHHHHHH


Legend:
[1] = target: T4, human Siglec15-Fc protein (human); assay: competitive ELISA: biotin-labeled human Siglec15-Fc in solution, competitor coated benchmark
T4 construct: In house made; also called recombinant human Siglec15 protein with human IgG1 Fc at the C-terminus
Method: (§1) The abilities of the anti-Siglec15 antibodies of the disclosure to block benchmark-human Siglec15 binding were measured in a competitive ELISA assay. Briefly, the benchmark was coated on 96-well micro plates at 2 μg/mL in PBS, 100 μl per well, and incubated for 2 hours at 37° C. Then plates were washed once with wash buffer, and blocked with 5% w/v non-fatty milk in PBST overnight at 4° C. The next day, the anti-Siglec15 antibodies of the disclosure or controls were diluted with biotin labeled human Siglec15-Fc protein (prepared in-house with SEQ ID NO: 19, 37 ng/ml in PBST with 2.5% w/v non-fatty milk), starting at 80 nM with a 4-fold serial dilution, and incubated at room temperature for 40 minutes. After plate washing 4 times, the antibody/Siglec15-Fc mixtures were added to benchmark coated plates, 100 μl per well. After incubation at 37° C. for 40 minutes, plates were washed 4 times again using wash buffer. Then the plates were added and incubated with 100 μl/well streptavidin conjugated HRP for 40 minutes at 37° C. […] Finally, TMB was added and the reaction was stopped using 1M H₂SO₄, and the absorbance of each well was read on a microplate reader using dual wavelength mode with 450 nm for TMB and 630 nm as the reference wavelength, then the OD (450-630) values were plotted against antibody concentration. Data was analyzed using Graphpad Prism software and IC₅₀ values were reported.

[2] = target: T4, human Siglec15-Fc protein; assay: as above; remark: listed apart in the source
Method: as §1

[3] = target: T1, mouse Siglec15-his protein; assay: indirect ELISA on coated mouse Siglec15-his
Method: (§2) The anti-Siglec15 antibodies' cross-reactions to cynomolgus or mouse Siglec15 proteins were measured. Briefly, 96-well micro plates were coated with 100 μl of 2 μg/ml cynomolgus Siglec15-his protein (in house made with SEQ ID NO: 21), or 2 μg/ml mouse Siglec15-his protein (in house made with SEQ ID NO: 22) in carbonate/bicarbonate buffer (pH 9.6) for 2 hours at 37° C. ELISA plates were washed once with wash buffer (PBS+0.05% v/v Tween-20, PBST) and then blocked with 200 μl/well blocking buffer (5% w/v non-fatty milk in PBST) overnight at 4° C. Plates were washed 4 times and incubated with 100 μl serially diluted anti-Siglec15 antibodies of the disclosure or controls (starting at 66.7 nM, 5-fold serial dilution in PBST with 2.5% w/v non-fatty milk) for 40 minutes at 37° C. […] The reaction was stopped 4 minutes later at room temperature with 50 μl 1M H₂SO₄, and the absorbance of each well was read on a microplate reader using dual wavelength mode with 450 nm for TMB and 630 nm as the reference wavelength, then the OD (450-630) values were plotted against antibody concentration. Data was analyzed using Graphpad Prism software and EC₅₀ values were reported.

[4] = target: T1, mouse Siglec15-his protein; assay: indirect ELISA on coated mouse Siglec15-his
Method: as §2

[5] = target: T2, human Siglec15 on …; assay: cell based binding FACS on human-siglec15-2D3-1E1 cells
Method: The binding activities of the anti-Siglec15 antibodies to cell surface Siglec15 were tested by flow cytometry (FACS), using in-house prepared human-siglec15-2D3-1E1 cells expressing human Siglec15 (amino acid residues Met1-Pro328 of uniprot #Q6ZMC9) on cell membranes. The human-siglec15-2D3-1E1 cells were prepared by transfecting HEK-293 cells (ATCC #CRL-1573) with pCMV-T-P plasmids inserted with human Siglec15 coding sequence between EcoRI and XbaI sites, following the instruction of lipofectamine 3000 transfection reagent (Thermo Fisher). The human-siglec15-2D3-1E1 cells were harvested from cell culture flasks, washed twice and re-suspended in phosphate buffered saline (PBS) containing 2% v/v Fetal Bovine Serum (FACS buffer). 2×10⁵ cells per well in 96 well-plates were incubated in 100 μL serially diluted anti-Siglec15 antibodies or controls (starting at 66.67 nM, 5-fold serial dilution) in FACS buffer for 40 minutes on ice. […] Following a 40-minute incubation at 4° C. in dark, cells were washed three times and re-suspended in FACS buffer. Fluorescence was measured using a Becton Dickinson FACS Canto II-HTS equipment. Data was analyzed using Graphpad Prism software and EC₅₀ values were reported.

[6] = target: T3, cynomolgus monkey Siglec15-his protein; assay: indirect ELISA on coated cynomolgus Siglec15-his
Method: as §2

Row | IC50 [1] | IC50 [2] | EC50 [3] | EC50 [4] | EC50 [5] | EC50 [6] | Binder
1 | 0.0836 nM | – | – | – | – | – | A2A5C7E8 (antibody, V domains shown, Fully human antibody from transgenic mouse hybridoma; also called A2A5C7E8-1) VH: EVQLVQSGAEVKKPGESLRISCKGSGYSFTTYWISWVRQMPGKGLEWMGLIDPSDSYTNYSPSFQGHVTISTDKSISTAYLQWSSLKASDTAMYYCARGGYYGSEEDYWGQGTLVTVSS VL: EIVLTQSPGTLSLSPGERATLSCRASQSVSSSRLAWFQQKSGQAPRLLIFDASSRATGIPDRFSGSGSGTDFTLTISRLEPEDFAVYYCQQYGSSPRTFGQGTKVEFK
2 | 0.253 nM | 0.338 nM | 0.402 nM | 0.419 nM | 15.5 nM | 0.307 nM | anti-Siglec15 benchmark (ch5G12) (antibody, human IgG1, kappa, V domains shown, ch5G12 (US 20190202912A1); also called BM; Siglec15-ch5G9) VH: QVQLQQPGAELVKPGASVKMSCKASGYTFTSYWITWVIQRPGQGLEWIGDIYCGSDTMHYNEKFKNKATLTVDTSSSTAYMQLSSLTSEDSAVYYCARWWDYGSSYDYFDYWGQGTTLTVSS VL: DIKMTQSPSSMYASLGERVTITCKASQDINSYLSWFQQKPGKSPKTLIYRANRLVDGVPSRFSGSGSGQDYSLTISSLEYEDMGIYYCLQYDEFPYTFGGGTKLEIKR

Source: US20230106715A1 (BIOSION, published 2023)
